Biological target: HIV-1 92BR-gp120 (HIV-1 (92BR))
Experiment: BLI

B1: gp120-Ab8 (antibody, V domains shown)
VH: EVQLVESGGGVVQPGRSLRLSCAASGFTFSFYGMHWVRQAPGKGLEWVAVISYDGRIKSYADSVKGRFTTSRDNSKNTLYLEMSSLRVEDTAVYYCAKSLVGATLLGPFGPWGQGSLVTVSS
VL: SYELTQPPSVSVAPGQTARITCGGDKIGGERVHWYQQKPGQAPVLVVYDDRDRPSGIPERFSGSNSGNTATLTISRVEAGDEADYYCQVRDSTSDHYVFGSGTKVTVL
B1 showed a Kd of 0.0893 µM.

— article PMC5551578
